This is an account of results in patent US20110008279A1, “Methods and Compositions Relating to Adhesins as Adjuvants” (priority 2005, published 2011).

Several values for one entry are separate records, joined by “and”; a condition that tells them apart may be missing. Equal values may be shown once. Read-outs that look alike come from different tables or passages of the source.

Experiment [1] has as its target specific NadA binding sites on monocytes (human).
Experiment [2] has as its target low affinity binding sites for NadA on immature mo-DCs (human). The experiment can be described thus: flow cytometry of Alexa-NadA on mo-DCs, Scatchard analysis. For orientation: A flow cytometer gives signals particle by particle.
Experiment [3] concerns the target high affinity binding sites for NadA on immature mo-DCs (human). Described as above.
The target in experiment [4] is NadA-specific binding sites on macrophage (human). The experiment can be described thus: flow cytometry (MFI), Alexa-NadA displaced by unlabelled NadA on macrophages, 37° C.
The target of experiment [5] is low affinity binding sites for NadA on immature mo-DCs (human). The experiment can be described thus: flow cytometry of Alexa-NadA on mo-DCs, Scatchard plot.
For experiment [6], the target named is high affinity binding sites for NadA on immature mo-DCs (human). The description is as above.
For experiment [7], the target named is specific NadA binding sites on monocytes (human). The experiment can be described thus: NadA-I125 binding to monocytes, Scatchard plot; value counted on the homo-trimer.
The subject of experiment [8] is mo-DCs. The experiment can be described thus: Expression of maturation markers on mo-DCs (flow cytometry). Conditions: flagellin 10 μg/ml; for CD86 expression: LPS 0.1 μg/ml. The class given is cell-based, human. As for the experimental part:
Reagents used were tested for low endotoxin contamination using the Limulus amoebocyte assay (Sigma). Dendritic cells were generated from human peripheral blood mononuclear cells (PBMC) as described previously. In brief, PBMC were isolated from buffy coats of healthy donors by Ficoll-Paque Plus density gradient centrifugation (Amersham Pharmacia Biotech AB). Separate monocyte and T-cell fractions were obtained from PBMCs by Percoll density gradient centrifugation (Amersham Pharmacia Biotech AB). […] DC were obtained by 6-d culture adherent monocytes in medium with 20 ng/ml IL-4 (5×10^6 units/mg, Peprotech) and 50 ng/ml GM-CSF (1×10^7 units/mg, Peprotech). Cytokines were added again on day 4 in RPMI-1640 medium supplemented with 10% FBS. […] After 24 h cells were harvested and analysed. Culture supernatants were collected frozen in liquid nitrogen and conserved at −80° C. for cytokine analysis.
After differentiation, DC were routinely stained with phycoerytrin conjugated monoclonal antibodies to human CD14, CD1a, CD83, CD86 (B7.2), CD80 (B7.1), MHC II (HLA-DR), purchased from BD-Pharminghen and Caltag. In parallel, cells were stained with the isotype matched control mAb. Cells were immunostained with the proper dilution of PE-conjugated anti human monoclonal antibodies at 4° C. for 30 min in 100 μl of phosphate-buffered saline pH 7.2 (PBS, GIBCO BRL) containing 1% FBS and 0.1% NaN3 (FACS buffer). After washing, propidium iodide was added to exclude dead cells and cell fluorescence intensities of the gated populations were measured with a EPICS XL-MCL (Coulter) flow cytometer and analyzed with EXPO 32ADC XL 3COLOR or WinMDI 2.8. software. Data were collected on 10000-20000 events.

In experiment [9] the test system is mo-DCs. As to the kind of experiment: Cytokine and chemokine secretion by mo-DCs (Bio-Plex, ELISA). It counts as cell-based, human. Particulars: even after IFN-γ priming; flagellin, LPS 100 μg/ml (so in the source). In general terms: In an ELISA, binding on a coated surface is turned into a signal by an enzyme label.
Experiment [10] has as its system mo-DCs. The experiment is described as above. Particulars: after IFN-γ priming; flagellin 10 μg/ml, CpG 10 μg/ml, maximal LPS. The class given is cell-based, human. As for the experimental part:
Reagents used were tested for low endotoxin contamination using the Limulus amoebocyte assay (Sigma). Dendritic cells were generated from human peripheral blood mononuclear cells (PBMC) as described previously. In brief, PBMC were isolated from buffy coats of healthy donors by Ficoll-Paque Plus density gradient centrifugation (Amersham Pharmacia Biotech AB). Separate monocyte and T-cell fractions were obtained from PBMCs by Percoll density gradient centrifugation (Amersham Pharmacia Biotech AB). Residual T and B cells were removed from monocyte fraction by plastic adherence of 3×10^6 cells per well in 6-well plates (Costar) resulting in CD14^+ monocyte populations of >95% purity (determined by flow cytometry). DC were obtained by 6-d culture adherent monocytes in medium with 20 ng/ml IL-4 (5×10^6 units/mg, Peprotech) and 50 ng/ml GM-CSF (1×10^7 units/mg, Peprotech). Cytokines were added again on day 4 in RPMI-1640 medium supplemented with 10% FBS. Following this procedure more than 90% cells belonged to the immature DC phenotype (CD1a^+, HLADRlow, CD14^−, CD83^−, CD86^low, CD80^low). On day 5 cells were treated with nothing or with recombinant human IFN-γ (1000 U/ml) for 18 h before stimulation with NadA (0.0375-5 μM) or LPS (1 μg/ml). After 24 h cells were harvested and analysed. Culture supernatants were collected frozen in liquid nitrogen and conserved at −80° C. for cytokine analysis.
The antibody pairs used, directed against different non-competing epitopes of a given cytokine, were purchased from BioRad. Calibration curves from recombinant cytokine standard were prepared with four-fold dilution steps in RPMI-1640 medium containing 10% FBS. Assays were carried out in 96-well sterile pre-wetted filter plates at room temperature and protected from light. A mixture containing 5000 microspheres per cytokine was incubated together with standard or sample in a final volume of 50 μl for 30 min, under continuous shaking (300 rpm). After three washes by vacuum filtration with Bio-Plex washing buffer a cocktail of biotinylated antibodies diluted in Bio-Plex detection antibody diluent was added (25 μl to each well). After a 30 minutes incubation and washing, Streptavidin-PE diluted in Bio-Plex Assay buffer was added (50 μl per well). At the end of 10 minutes incubation under continuous shaking and after washing the fluorescence intensity of the beads was measured in a final volume of 125 μl of Bio-Plex assay buffer. Data analysis was done with Bio-Plex Manager software using a five-parametric-curve fitting. The detection limits were […].
IL12(p40) was measured by capture enzyme-linked immunosorbent assay (ELISA) with antibody pairs and cytokine standard purchased from Bender MedSystems. The concentrations of IL12(p40) in the cell-free supernatants were determined with ELISA kits according to the manufacturer's instructions. The detection limit of the assays was […].

As usually defined, the Kd is a measure of binding affinity in units of concentration. Low values mean tighter binding, high ones weaker binding. “NadAΔ351-405 (from UniProt P0DV44 24-350)”: the Kd in experiment [1] was 3000 nM; in experiment [2], 4 µM; in [3], 90 nM; in [5], 3 µM and 5 µM; in experiment [6], 50 to 100 nM; in experiment [7], 1000 nM. For the same substance, in experiment [1], the decrease of the signal with 5 uM unlabelled NadA was -50%. Also, the decrease of the signal with unlabelled NadA in [4] was -50%. Moreover, the fraction of binding sites in experiment [5] was 70 to 80%; in [6] it was 30% and 20%.

Regarding flagellin [reference compound], the “CD86 expression on co-stimulation with R-848” value in the experiment with mo-DCs [8] (R-848 1 μM, after IFN-γ priming, NadA 1.5 μM) is on record as “not further increased”. Also, the CD86 expression entry with mo-DCs [8] (after IFN-γ priming, CpG up to 10 μg/ml) is recorded as “comparable to that induced by NadA 1.5 μM”; with mo-DCs [8] (no IFN-γ priming), “significant increase”. In addition, the “IL-12 secretion with R-848 co-stimulation” value in the experiment on mo-DCs [9] is listed as “ineffective”. In the experiment with mo-DCs [10], the “IL-12(p70) secretion” value was “comparable to that induced by both 0.25 μM (9 μg/ml) and 1.5 μM (50 μg/ml) NadA”.
